Measurements published in publication PMC5757175.

How the values were obtained:
[1] = target: myosin subfragment-1 (S1) from rabbit skeletal muscle (rabbit)
[2] = target: myosin subfragment-1 (S1) from rabbit skeletal muscle (rabbit); remark: listed apart in the source

How did the apparent Kd of the inhibition of actin filament gliding velocity (myosin S1 fixed on nitrocellulose-coated coverslips, central domain titrated in the assay buffer; 2.2 uM halted gliding) [1] turn out when “central domain of Mus musculus UNC-45B (domain or fragment)” was run?
The apparent Kd of the inhibition of actin filament gliding velocity (myosin S1 fixed on nitrocellulose-coated coverslips, central domain titrated in the assay buffer; 2.2 uM halted gliding) was 0.4 µM.

B1: full-length Mus musculus UNC-45B (natural protein)
chain: MAEAEAAQLKEEGNRHFQLQDYKAATKSYSQALKLTKDKALLATLYRNRAACGLKMESYAQAASDASRAIDINSADIKALYRRCQALEHLGKLDQAFKDVQRCATLEPRNQNFQETLRRLNTSIQEQLRVQFSTDSRVQTMFEILLNENSEADKREKAANNLIVLGREEAGAERIFQSNGVALLLQLMNTQRPELLLAAVRTLSGMCSGHRARATAILHAVRIDRICSLMALENEEMSLAVCNLLQAIIDSLSGEDKREHRGKEEALVLDTKKDLKQITSHLLDMLVSKKVSGQGRDQALNLLNKNVPRKDLSIHDNSRTIYVVDNGLRKILKVVGQVPDLPSCLPLTDNTRMLASILINKLYDDLRCDPERDHFRKICEEYITSKFDPQDMDKNVNAIQTVSGILQGPFDLGNQLLGMKGVMEMMVALCGSEREADQLVAVEALIHASTKLSRATFIITNGVTLLKQIYKTTKNEKIKIRTLVGLCKLGSAGGSDYGLRQFAEGSTEKLAKQCRKWLCNTAIDTRTRRWAVEGLAYLTLDADVKDDFVQDIPALQAMFELAKARTSDKTILYSVANTLVNCTNSYDVKEVVPELVQLAKFSKQHVPEEHPKDKKDFVDLRVKRLLKAGVISALACMVKADSAILTDQTKELLARVFLALCDNPKDRGTIVAQGGGKALIPLALEGTDVGKVKAAHGLAKIAAVSNPDIAFPGERVYEVVRPLVSLLDTQRDGLQNYEALLGLTNLSGRSDKLRQKIFKEKALPDIENYMFENHDQLRQAATECMCNMVLNKEVQERFLADGNDRLKLVVLLCGEDDHKLQNAAAGALAMLTAAHKKLCLKMTEVTTQWLEILQRLCLHDQLSVQHRGLVIAHNLLSADAELARKLVESELLEILTVVGKQEPDEKRAAVVQTARECLIKCMDYGFIKPVS
B1 was tested. Which apparent Kd of the inhibition of actin filament gliding velocity (myosin S1 fixed on nitrocellulose-coated coverslips, UNC-45B titrated in the assay buffer; 2.8 uM inhibited translocation completely) [2] did it give?
Its apparent Kd of the inhibition of actin filament gliding velocity (myosin S1 fixed on nitrocellulose-coated coverslips, UNC-45B titrated in the assay buffer; 2.8 uM inhibited translocation completely) is 0.2 µM.
